Data published in publication PMC5083789.

Target: Pure recombinant PlmA (Synechococcus elongatus PCC7942)
Assay: SEC; 0.1 mg pure PlmA in 0.1 ml on Superdex 200 10/300 GL, 0.3 ml/min, 50 mM Hepes pH 7.5, 0.5 M NaCl, 1 mM 2-mercaptoethanol; calibrated with protein standards

- stoichiometry N: 2
Substance: Pure recombinant PlmA (natural protein)
